# Measured values as given in US20060276387A1 (published 2006).
# Biological target: human IPF1, N-terminus FLAG-tagged (from pcDNA-FLAG-IPF1) (human, UniProt P52945 1-283, limits assumed)
# Assay: cell-based or functional assay
# Chain of human IPF1, N-terminus FLAG-tagged (from pcDNA-FLAG-IPF1) (P52945 whole entry): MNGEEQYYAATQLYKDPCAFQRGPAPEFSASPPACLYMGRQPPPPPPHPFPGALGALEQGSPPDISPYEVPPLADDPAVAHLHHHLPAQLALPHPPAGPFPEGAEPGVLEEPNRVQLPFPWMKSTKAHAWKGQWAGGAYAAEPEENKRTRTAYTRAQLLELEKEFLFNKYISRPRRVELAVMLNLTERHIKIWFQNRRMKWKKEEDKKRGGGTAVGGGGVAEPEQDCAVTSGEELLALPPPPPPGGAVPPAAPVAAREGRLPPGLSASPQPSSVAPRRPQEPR
row,Binder,"IPF1-dependent human insulin promoter activity (luciferase reporter, HeLa cells), inhibition"
1,"human hepatocyte nuclear factor 3-gamma (HNF3G), N-terminus HA-tagged (other, not shown: small tags and cut ends, 35S-methionine-labeled (in the pull-down)) MLGSVKMEAHDLAEWSYYPEAGEVYSPVTPVPTMAPLNSYMTLNPLSSPYPPGGLPASPLPSGPLAPPAPAAPLGPTFPGLGVSGGSSSSGYGAPGPGLVHGKEMPKGYRRPLAHAKPPYSYISLITMAIQQAPGKMLTLSEIYQWIMDLFPYYRENQQRWQNSIRHSLSFNDCFVKVARSPDKPGKGSYWALHPSSGNMFENGCYLRRQKRFKLEEKVKKGGSGAATTTRNGTGSAASTTTPAATVTSPPQPPPPAPEPEAQGGEDVGALDCGSPASSTPYFTGLELPGELKLDAPYNFNHPFSINNLMSEQTPAPPKLDVGFGGYGAEGGEPGVYYQGLYSRSLLNAS",~45%
2,"human PHD finger protein 1 (PHF1), N-terminus HA-tagged (other, not shown: small tags and cut ends, 35S-methionine-labeled (in the pull-down)) MAQPPRLSRSGASSLWDPASPAPTSGPRPRLWEGQDVLARWTDGLLYLGTIKKVDSAREVCLVQFEDDSQFLVLWKDISPAALPGEELLCCVCRSETVVPGNRLVSCEKCRHAYHQDCHVPRAPAPGEGEGTSWVCRQCVFAIATKRGGALKKGPYARAMLGMKLSLPYGLKGLDWDAGHLSNRQQSYCYCGGPGEWNLKMLQCRSCLQWFHEACTQCLSKPLLYGDRFYEFECCVCRGGPEKVRRLQLRWVDVAHLVLYHLSVCCKKKYFDFDREILPFTSENWDSLLLGELSDTPKGERSSKLLSALNSHKDRFISGREIKKRKCLFGLHARMPPPVEPPTGDGALTSFPSGQGPGGGVSRPLGKRRRPEPEPLRRRQKGKVEELGPPSAVRNQPEPQEQRERAHLQRALQASVSPPSPSPNQSYQGSSGYNFRPTDARCLPSSPIRMFASFHPSASTAGTSGDSGPPDRSPLELHIGFPTDIPKSAPHSMTASSSSVSSPSPGLPRRSAPPSPLCRSLSPGTGGGVRGGVGYLSRGDPVRVLARRVRPDGSVQYLVEWGGGGIF",~25%
3,"human distal-less homeobox 4 (DLX4), N-terminus HA-tagged (other, not shown: small tags and cut ends, 35S-methionine-labeled (in the pull-down)) MTSLPCPLPGRDASKAVFPDLAPVPSVAAAYPLGLSPTTAASPNLSYSRPYGHLLSYPYTEPANPGDSYLSCQQPAALSQPLCGPAEHPQELEADSEKPRLSPEPSERRPQAPAKKLRKPRTIYSSLQLQHLNQRFQHTQYLALPERAQLAAQLGLTQTQVKIWFQNKRSKYKKLLKQNSGGQEGDFPGRTFSVSPCSPPLPSLWDLPKAGTLPTSGYGNSFGAWYQHHSSDVLASPQMM",~60%
